The labels stand for the following.
B1: Kinesin-like protein KIF16B, residues 1213 to 1273; numbered along this chain, Q96L93 (parent)
chain: ETWTVFRRYSRFREMHKTLKLKYAELAALEFPPKKLFGNKDERVIAERRSHLEKYLRDFFS

± gives the uncertainty stated by the source.

The variants in the data set derive from B1. The data set is described as follows: abundance fitness (aPCA) (normalised: wild type 0, dead -1); higher = more abundant; growth selection in yeast, the domain comes from the species named. The following applies: Homo sapiens.
With ETWTVFRRYSRFREMHKTLKLKYAELAALEFPPKKLFGNKDERVIAERRSHLEKYLRDEFS, the abundance fitness is -0.627 ± 0.11.

On to ETWTVFRRYSRFREMHKTLKLKYAELAALEFPPKKLFGNKDERVIAERRSHLEKYLRDAFS, for which the abundance fitness was -0.607 ± 0.11.

Consider ETWTVFRRYSRFREMHKTLKLKYAELAALEFPPKKLFGNKDERVIAERRSHLEKYLRDMFS, for which the abundance fitness was -0.277 ± 0.08.

As for ETWTVFRRYSRFREMHKTLKLKYAELAALEFPPKKLFGNKDERVIAERRSHLEKYLRDWFS, the abundance fitness is -0.005 ± 0.075.

As for ETWTVFRRYSRFREMHKTLKLKYAELAALEFPPKKLFGNKDERVIAERRSHLEKYLRDKFS, the abundance fitness was -0.204 ± 0.12.

Regarding ETWTVFRRYSRFREMHKTLKLKYAELAALEFPPKKLFGNKDERVIAERRSHLEKYLRDVFS, the abundance fitness was -0.121 ± 0.06.

Consider ETWTVFRRYSRFREMHKTLKLKYAELAALEFPPKKLFGNKDERVIAERRSHLEKYLRDCFS, for which the abundance fitness was -0.429 ± 0.14.

Turning to ETWTVFRRYSRFREMHKTLKLKYAELAALEFPPKKLFGNKDERVIAERRSHLEKYLRDTFS, the abundance fitness is -0.489 ± 0.11.

Turning to ETWTVFRRYSRFREMHKTLKLKYAELAALEFPPKKLFGNKDERVIAERRSHLEKYLRDLFS, the abundance fitness is -0.157 ± 0.068.

Take ETWTVFRRYSRFREMHKTLKLKYAELAALEFPPKKLFGNKDERVIAERRSHLEKYLRDSFS: the abundance fitness was -0.994 ± 0.18.

On to ETWTVFRRYSRFREMHKTLKLKYAELAALEFPPKKLFGNKDERVIAERRSHLEKYLRDQFS, for which the abundance fitness is -0.51 ± 0.18.

As for ETWTVFRRYSRFREMHKTLKLKYAELAALEFPPKKLFGNKDERVIAERRSHLEKYLRDGFS, the abundance fitness was -0.573 ± 0.076.

Consider ETWTVFRRYSRFREMHKTLKLKYAELAALEFPPKKLFGNKDERVIAERRSHLEKYLRDRFS, for which the abundance fitness was -0.461 ± 0.07.

On to ETWTVFRRYSRFREMHKTLKLKYAELAALEFPPKKLFGNKDERVIAERRSHLEKYLRDIFS, for which the abundance fitness is -0.031 ± 0.41.

In the case of ETWTVFRRYSRFREMHKTLKLKYAELAALEFPPKKLFGNKDERVIAERRSHLEKYLRDFIS, the abundance fitness is -0.143 ± 0.28.

In the case of ETWTVFRRYSRFREMHKTLKLKYAELAALEFPPKKLFGNKDERVIAERRSHLEKYLRDFMS, the abundance fitness was -0.256 ± 0.097.

In the case of ETWTVFRRYSRFREMHKTLKLKYAELAALEFPPKKLFGNKDERVIAERRSHLEKYLRDFPS, the abundance fitness was -0.759 ± 0.14.

In the case of ETWTVFRRYSRFREMHKTLKLKYAELAALEFPPKKLFGNKDERVIAERRSHLEKYLRDFLS, the abundance fitness is -0.087 ± 0.064.

Regarding ETWTVFRRYSRFREMHKTLKLKYAELAALEFPPKKLFGNKDERVIAERRSHLEKYLRDFWS, the abundance fitness was determined as 0.153 ± 0.073.

ETWTVFRRYSRFREMHKTLKLKYAELAALEFPPKKLFGNKDERVIAERRSHLEKYLRDFVS: the abundance fitness is -0.165 ± 0.086.

Consider ETWTVFRRYSRFREMHKTLKLKYAELAALEFPPKKLFGNKDERVIAERRSHLEKYLRDFES, for which the abundance fitness was -1 ± 0.23.

As to ETWTVFRRYSRFREMHKTLKLKYAELAALEFPPKKLFGNKDERVIAERRSHLEKYLRDFAS, the abundance fitness was -0.729 ± 0.11.

As to ETWTVFRRYSRFREMHKTLKLKYAELAALEFPPKKLFGNKDERVIAERRSHLEKYLRDFQS, the abundance fitness is -1.01 ± 0.33.

As to ETWTVFRRYSRFREMHKTLKLKYAELAALEFPPKKLFGNKDERVIAERRSHLEKYLRDFGS, the abundance fitness is -0.647 ± 0.088.

Consider ETWTVFRRYSRFREMHKTLKLKYAELAALEFPPKKLFGNKDERVIAERRSHLEKYLRDFSS, for which the abundance fitness was -0.585 ± 0.1.

As to ETWTVFRRYSRFREMHKTLKLKYAELAALEFPPKKLFGNKDERVIAERRSHLEKYLRDFRS, the abundance fitness is -0.565 ± 0.097.

With ETWTVFRRYSRFREMHKTLKLKYAELAALEFPPKKLFGNKDERVIAERRSHLEKYLRDFCS, the abundance fitness was -0.263 ± 0.15.

Take ETWTVFRRYSRFREMHKTLKLKYAELAALEFPPKKLFGNKDERVIAERRSHLEKYLRRFFS: the abundance fitness came to 0.161 ± 0.049.

Turning to ETWTVFRRYSRFREMHKTLKLKYAELAALEFPPKKLFGNKDERVIAERRSHLEKYLRGFFS, the abundance fitness was 0.03 ± 0.053.

As to ETWTVFRRYSRFREMHKTLKLKYAELAALEFPPKKLFGNKDERVIAERRSHLEKYLRCFFS, the abundance fitness is -0.024 ± 0.17.

In the case of ETWTVFRRYSRFREMHKTLKLKYAELAALEFPPKKLFGNKDERVIAERRSHLEKYLRKFFS, the abundance fitness was determined as 0.241 ± 0.081.

Take ETWTVFRRYSRFREMHKTLKLKYAELAALEFPPKKLFGNKDERVIAERRSHLEKYLRVFFS: the abundance fitness is -0.048 ± 0.061.

In the case of ETWTVFRRYSRFREMHKTLKLKYAELAALEFPPKKLFGNKDERVIAERRSHLEKYLRMFFS, the abundance fitness came out at 0.056 ± 0.069.

Regarding ETWTVFRRYSRFREMHKTLKLKYAELAALEFPPKKLFGNKDERVIAERRSHLEKYLRPFFS, the abundance fitness amounted to 0.09 ± 0.084.

On to ETWTVFRRYSRFREMHKTLKLKYAELAALEFPPKKLFGNKDERVIAERRSHLEKYLRQFFS, for which the abundance fitness is -0.153 ± 0.13.

For ETWTVFRRYSRFREMHKTLKLKYAELAALEFPPKKLFGNKDERVIAERRSHLEKYLRNFFS, the abundance fitness is -0.149 ± 0.21.

Turning to ETWTVFRRYSRFREMHKTLKLKYAELAALEFPPKKLFGNKDERVIAERRSHLEKYLRHFFS, the abundance fitness was determined as 0.09 ± 0.11.

Consider ETWTVFRRYSRFREMHKTLKLKYAELAALEFPPKKLFGNKDERVIAERRSHLEKYLRSFFS, for which the abundance fitness was -0.182 ± 0.086.

Turning to ETWTVFRRYSRFREMHKTLKLKYAELAALEFPPKKLFGNKDERVIAERRSHLEKYLRWFFS, the abundance fitness came out at 0.204 ± 0.054.

Consider ETWTVFRRYSRFREMHKTLKLKYAELAALEFPPKKLFGNKDERVIAERRSHLEKYLRAFFS, for which the abundance fitness amounted to 0.087 ± 0.083.

With ETWTVFRRYSRFREMHKTLKLKYAELAALEFPPKKLFGNKDERVIAERRSHLEKYLRIFFS, the abundance fitness is 0.012 ± 0.19.

Turning to ETWTVFRRYSRFREMHKTLKLKYAELAALEFPPKKLFGNKDERVIAERRSHLEKYLRLFFS, the abundance fitness is -0.075 ± 0.08.

In the case of ETWTVFRRYSRFREMHKTLKLKYAELAALEFPPKKLFGNKDERVIAERRSHLEKYLRFFFS, the abundance fitness is 0.049 ± 0.25.

The values above are taken from the Human Domainome abundance scans (Beltran et al. 2025).
